Assay results from article PMC12368724 (2025).

Molecular target: GH1 β-glucosidase from Spodoptera frugiperda (Sfβgly), wild-type (Spodoptera frugiperda)
Assay: P100 buffer, pH 6, 5°C, protein sample 3 (SEC)

B1: GH1 β-glucosidase from Spodoptera frugiperda (Sfβgly), wild-type (enzyme)
chain: QQRRFPDDFLFGTATASYQIEGAWDEDGKGENIWDYMVHNTPEVIRDLSNGDIAADSYHNYKRDVEMMRELGLDAYRFSLSWARILPTGMANEVNPAGIAFYNNYIDEMLKYNITPLITLYHWDLPQKLQELGGFANPLISDWFEDYARVVFENFGDRVKMFITFNEPREICFEGYGSATKAPILNATAMGAYLCAKNLVTAHAKAYYLYDREFRPVQGGQCGITISVNWFGPATPTPEDEMAAELRRQGEWGIYAHPIFSAEGGFPKELSDKIAEKSAQQGYPWSRLPEFTEEEKAFVRGTSDFFGVNHYTAFLVSATERKGPYPVPSLLDDVDTGSWADDSWLKSASAWLTLAPNSIHTALTHLNNLYNKPVFYITENGWSTDESRENSLIDDDRIQYYRASMESLLNCLDDGINLKGYMAWSLMDNFEWMEGYIERFGLYEVDFSDPARTRTPRKAAFVYKHIIKHRVVDYEYEPETMVMTIDEGH
modifications: Monomer given, self-associates to a C2 homodimer. Limits by convention from the 5CG0 entity; paper numbering = entity + 20 (precursor numbering) Monomer given, self-associates to a C2 homodimer. Limits by convention from the 5CG0 entity; paper numbering = entity + 20 (precursor numbering)
Binder B1 has a Kd of 5.5 µM.
